B1: Pistol ribozyme (parent)
chain: GGGUCGUUGUUCCAUAAUCGCGUGGAUAUGGCACGCAAGUUUCUACCGGGCACCGUAAAUGUCCGACUGGAGCCGUUCGGGCGGCUAUAAACAGACCUCAGGCCCGAAGCGUGGCGGCACCUGCCGCCGGUGGUAAAAAAGAUCGGAAGAGCACACGUCU

Variants of: B1
Test: aptazyme ON/OFF ratio, guanine; higher = stronger switching; co-transcriptional cleavage with and without guanine

| Variant | aptazyme ON/OFF ratio |
| --- | --- |
| U7G U8G G9A U10G C13G | 1.11 |
| U7G U8G G9A U10G C13A | 1.39 |
| U7G U8G G9A U10G C13U | 1.27 |
| U7G U8G G9C U10A C12G C13U | 1.04 |
| U7G U8G G9C U10A C12G C13G | 1.04 |
| U7G U8G G9C U10A C12G C13A | 1.05 |
| U7G U8G G9A U11A C13U | 1.11 |
| U7G U8G G9A U11A C13G | 1.06 |
| U7G U8G G9A U11A C13A | 1.35 |
| U7G U8G G9A U10G U11A C12G C13A | 1.13 |
| U7G U8G G9A U10G U11A C12G C13G | 1.18 |
| U7G U8G G9A U10G U11A C12G C13U | 1.26 |
| U7G U8G G9C U10A | 1.58 |
| U7G U8G G9C U10C | 2.35 |
| U7G U8G G9C U10C U11G C12G C13U | 1.07 |
| U7G U8G G9C U10C U11G C12G C13A | 1.19 |
| U7G U8G G9C U10C U11G C12G C13G | 1.17 |
| U7G U8G G9A U10A U11G C13G | 1.16 |
| U7G U8G G9A U10A U11G C13U | 1.14 |
| U7G U8G G9A U10A U11G C13A | 1.09 |
| U7G U8G G9C U10C C12U C13U | 1.08 |
| U7G U8G G9C U10C C12U C13G | 1.36 |
| U7G U8G G9C U10C C12U C13A | 1.29 |
| U7G U8G G9A U10A U11G C12U | 1.22 |

| Variant | aptazyme ON/OFF ratio |
| --- | --- |
| U7G U8G G9A U10A U11G C12A | 1.07 |
| U7G U8G G9A U10A U11G C12G | 1.43 |
| U7G U8G G9C U10C C12G C13U | 1.27 |
| U7G U8G G9C U10C C12G C13G | 1.09 |
| U7G U8G G9C U10C C12G C13A | 1.22 |
| U7G U8G G9A U10G U11C C12A C13A | 1.17 |
| U7G U8G G9A U10G U11C C12A C13U | 1.27 |
| U7G U8G G9A U10G U11C C12A C13G | 1.15 |
| U7G U8G G9A U11G C12A C13U | 1.18 |
| U7G U8G G9A U11G C12A C13A | 0.999 |
| U7G U8G G9A U11G C12A C13G | 1.09 |
| U7G U8G G9A U11C C12U C13A | 1.31 |
| U7G U8G G9A U11C C12U C13G | 1.44 |
| U7G U8G G9A U11C C12U C13U | 1.02 |
| U7G U8G G9A U11G C13A | 1.26 |
| U7G U8G G9A U11G C13G | 1.17 |
| U7G U8G G9A U11G C13U | 1.3 |
| U7G U8G G9A U11A C12G C13U | 1.15 |
| U7G U8G G9A U11A C12G C13A | 1.03 |
| U7G U8G G9A U11A C12G C13G | 1.06 |
| U7G U8G G9C C12A C13U | 1.2 |
| U7G U8G G9C C12A C13G | 1.08 |
| U7G U8G G9C C12A C13A | 1.22 |
| U7G U8G G9A U10C U11G C13A | 1.27 |

| Variant | aptazyme ON/OFF ratio |
| --- | --- |
| U7G U8G G9A U10C U11G C13G | 1.28 |
| U7G U8G G9A U10C U11G C13U | 1.19 |
| U7G U8G G9C U10C U11G C12A | 1.22 |
| U7G U8G G9C U10C U11G C12G | 1.23 |
| U7G U8G G9C U10C U11G C12U | 1.37 |
| U7G U8G G9A U11G C12G | 1.39 |
| U7G U8G G9A U11G C12U | 1.5 |
| U7G U8G G9A U11G C12A | 1.28 |
| U7G U8G G9C U10A C12A C13G | 1.04 |
| U7G U8G G9C U10A C12A C13A | 1.03 |
| U7G U8G G9C U10A C12A C13U | 1.04 |
| U7G U8G G9A U10G U11G C13A | 1.13 |
| U7G U8G G9A U10G U11G C13G | 1.41 |
| U7G U8G G9A U10G U11G C13U | 1.22 |
| U7G U8G G9A U10G U11G C12G C13A | 1.23 |
| U7G U8G G9A U10G U11G C12G C13G | 1.25 |
| U7G U8G G9A U10G U11G C12G C13U | 1.11 |
| U7G U8G G9C U10A U11G C12A C13G | 1.12 |
| U7G U8G G9C U10A U11G C12A C13A | 1.07 |
| U7G U8G G9C U10A U11G C12A C13U | 1.05 |
| U7G U8G G9A U10C C12U C13G | 1.18 |
| U7G U8G G9A U10C C12U C13A | 1.11 |
| U7G U8G G9A U10C C12U C13U | 1.29 |
| U7G U8G G9A U10C U11G C12U C13G | 1.16 |

| Variant | aptazyme ON/OFF ratio |
| --- | --- |
| U7G U8G G9A U10C U11G C12U C13A | 1.27 |
| U7G U8G G9A U10C U11G C12U C13U | 1.38 |
| U7G U8G G9A U10A U11G C12U C13U | 1.35 |
| U7G U8G G9A U10A U11G C12U C13A | 1.13 |
| U7G U8G G9A U10A U11G C12U C13G | 1.12 |
| U7G U8G G9A U10G U11C C13A | 1.15 |
| U7G U8G G9A U10G U11C C13G | 1.08 |
| U7G U8G G9A U10G U11C C13U | 1.08 |
| U7G U8G G9A U10C U11C C12U | 1.1 |
| U7G U8G G9A U10C U11C C12G | 1.21 |
| U7G U8G G9A U10C U11C C12A | 1.22 |
| U7G U8G G9C U10A U11C C13A | 1.07 |
| U7G U8G G9C U10A U11C C13G | 1.05 |
| U7G U8G G9C U10A U11C C13U | 1.07 |
| U7G U8G G9C | 4.59 |
| U7G U8G G9C U10C U11C C12G C13G | 1.06 |
| U7G U8G G9C U10C U11C C12G C13U | 1.04 |
| U7G U8G G9C U10C U11C C12G C13A | 1.05 |
| U7G U8G G9C U10A U11C C12G | 1.11 |
| U7G U8G G9C U10A U11C C12U | 1.08 |
| U7G U8G G9C U10A U11C C12A | 1.06 |
| U7G U8G G9A U10G U11C C12G C13A | 1.16 |
| U7G U8G G9A U10G U11C C12G C13U | 1.28 |
| U7G U8G G9A U10G U11C C12G C13G | 1.13 |

| Variant | aptazyme ON/OFF ratio |
| --- | --- |
| U7G U8G G9C U10C U11C C13G | 1.04 |
| U7G U8G G9C U10C U11C C13U | 1.07 |
| U7G U8G G9C U10C U11C C13A | 1.09 |
| U7G U8G G9A U11C C13U | 1.28 |
| U7G U8G G9A U11C C13G | 1.12 |
| U7G U8G G9A U11C C13A | 1.25 |
| U7G U8G G9A U10G U11G C12A C13G | 1.15 |
| U7G U8G G9A U10G U11G C12A C13A | 1.1 |
| U7G U8G G9A U10G U11G C12A C13U | 1.17 |
| U7G U8G G9C U10A U11G C12G C13U | 1.06 |
| U7G U8G G9C U10A U11G C12G C13G | 1.07 |
| U7G U8G G9C U10A U11G C12G C13A | 1.1 |
| U7G U8G G9C U10A U11A C12U C13G | 1.03 |
| U7G U8G G9C U10A U11A C12U C13U | 1.02 |
| U7G U8G G9C U10A U11A C12U C13A | 1.08 |
| U7G U8G G9C U10C U11A C13A | 1.21 |
| U7G U8G G9C U10C U11A C13U | 1.41 |
| U7G U8G G9C U10C U11A C13G | 1.17 |
| U7G U8G G9C U10A U11A C12G C13U | 1.02 |
| U7G U8G G9C U10A U11A C12G C13G | 1.05 |
| U7G U8G G9C U10A U11A C12G C13A | 1.08 |
| U7G U8G G9A U11G C12G C13G | 1.12 |
| U7G U8G G9A U11G C12G C13A | 1.12 |
| U7G U8G G9A U11G C12G C13U | 1.23 |

| Variant | aptazyme ON/OFF ratio |
| --- | --- |
| U7G U8G G9C U10C U11A C12G C13A | 1.28 |
| U7G U8G G9C U10C U11A C12G C13G | 1.24 |
| U7G U8G G9C U10C U11A C12G C13U | 1.24 |
| U7G U8G G9A U11C C12G C13A | 1.21 |
| U7G U8G G9A U11C C12G C13U | 1.35 |
| U7G U8G G9A U11C C12G C13G | 1.11 |
| U7G U8G G9C U10A U11A C12G | 1.07 |
| U7G U8G G9C U10A U11A C12U | 1.07 |
| U7G U8G G9C U10A U11A C12A | 1.07 |
| U7G U8G G9C U10C U11G C13A | 1.38 |
| U7G U8G G9C U10C U11G C13G | 1.27 |
| U7G U8G G9C U10C C12U | 1.38 |
| U7G U8G G9C U10C C12G | 1.28 |
| U7G U8G G9C U10C C12A | 1.33 |
| U7G U8G G9C U10A U11C C12A C13U | 1.04 |
| U7G U8G G9C U10A U11C C12A C13G | 1.06 |
| U7G U8G G9C U10A U11C C12A C13A | 1.07 |
| U7G U8G G9A U10G U11G C12G | 1.3 |
| U7G U8G G9A U10G U11G C12A | 1.21 |
| U7G U8G G9A U10G U11G C12U | 1.43 |
| U7G U8G G9A U10C C12A C13G | 1.14 |
| U7G U8G G9A U10C C12A C13U | 1.32 |
| U7G U8G G9A U10C C12A C13A | 1.13 |
| U7G U8G G9C C12U | 1.94 |

| Variant | aptazyme ON/OFF ratio |
| --- | --- |
| U7G U8G G9C C12A | 1.22 |
| U7G U8G G9C C12G | 1.47 |
| U7G U8G G9A U11G C12U C13U | 1.4 |
| U7G U8G G9A U11G C12U C13A | 1.23 |
| U7G U8G G9A U11G C12U C13G | 1.25 |
| U7G U8G G9C U10C U11A C12U C13A | 1.36 |
| U7G U8G G9C U10C U11A C12U C13G | 1.32 |
| U7G U8G G9C U10C U11A C12U C13U | 1.23 |
| U7G U8G G9A U10C C13U | 1.59 |
| U7G U8G G9A U10C C13A | 1.12 |
| U7G U8G G9A U10C C13G | 1.12 |
| U7G U8G G9A U11A C12A C13U | 1.38 |
| U7G U8G G9A U11A C12A C13G | 1.14 |
| U7G U8G G9A U11A C12A C13A | 1.23 |
| U7G U8G G9A U10C C12G C13U | 1.33 |
| U7G U8G G9A U10C C12G C13A | 1.26 |
| U7G U8G G9A U10C C12G C13G | 1.16 |
| U7G U8G G9A U10C U11C C12A C13A | 1.19 |
| U7G U8G G9A U10C U11C C12A C13G | 1.2 |
| U7G U8G G9A U10C U11C C12A C13U | 1.11 |
| U7G U8G G9C U10C U11A | 1.64 |
| U7G U8G G9C U10C U11C | 1.22 |
| U7G U8G G9C U10C U11G | 1.35 |

Source: the RNAGym collection of RNA variant scans (doi:10.1021/acssynbio.7b00057)
